The text below walks through data of patent US20180244758A1 (MAPP BIOPHARMACEUTICAL, published 2018).

For test [1], the target named is GP of authentic (wild-type) BDBV (Bundibugyo virus (BDBV)). Briefly: cell-based or functional assay.
Test [2] addresses T1, GP of authentic (wild-type) EBOV (Ebola virus (EBOV), UniProt P87666 33-676).
T1 sequence: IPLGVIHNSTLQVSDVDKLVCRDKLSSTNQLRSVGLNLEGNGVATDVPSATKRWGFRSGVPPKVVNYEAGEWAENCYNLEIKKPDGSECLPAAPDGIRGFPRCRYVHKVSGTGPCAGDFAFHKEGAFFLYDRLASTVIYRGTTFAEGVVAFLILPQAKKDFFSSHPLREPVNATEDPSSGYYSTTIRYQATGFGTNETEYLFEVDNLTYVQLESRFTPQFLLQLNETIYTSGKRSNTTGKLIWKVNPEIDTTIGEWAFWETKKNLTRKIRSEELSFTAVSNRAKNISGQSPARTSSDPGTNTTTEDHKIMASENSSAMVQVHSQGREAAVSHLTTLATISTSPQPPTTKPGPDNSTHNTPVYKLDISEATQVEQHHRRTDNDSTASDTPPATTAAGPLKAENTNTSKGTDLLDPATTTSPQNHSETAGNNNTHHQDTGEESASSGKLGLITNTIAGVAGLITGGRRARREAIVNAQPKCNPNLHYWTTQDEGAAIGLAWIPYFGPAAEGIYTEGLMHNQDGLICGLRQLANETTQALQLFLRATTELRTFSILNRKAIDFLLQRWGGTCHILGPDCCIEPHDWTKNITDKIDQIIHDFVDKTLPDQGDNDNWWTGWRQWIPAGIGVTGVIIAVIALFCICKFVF
Briefly: cell-based or functional assay.

In test [3] the target is T2, GP of authentic (wild-type) SUDV (Sudan virus (SUDV), UniProt Q66814 33-676).
T2 sequence: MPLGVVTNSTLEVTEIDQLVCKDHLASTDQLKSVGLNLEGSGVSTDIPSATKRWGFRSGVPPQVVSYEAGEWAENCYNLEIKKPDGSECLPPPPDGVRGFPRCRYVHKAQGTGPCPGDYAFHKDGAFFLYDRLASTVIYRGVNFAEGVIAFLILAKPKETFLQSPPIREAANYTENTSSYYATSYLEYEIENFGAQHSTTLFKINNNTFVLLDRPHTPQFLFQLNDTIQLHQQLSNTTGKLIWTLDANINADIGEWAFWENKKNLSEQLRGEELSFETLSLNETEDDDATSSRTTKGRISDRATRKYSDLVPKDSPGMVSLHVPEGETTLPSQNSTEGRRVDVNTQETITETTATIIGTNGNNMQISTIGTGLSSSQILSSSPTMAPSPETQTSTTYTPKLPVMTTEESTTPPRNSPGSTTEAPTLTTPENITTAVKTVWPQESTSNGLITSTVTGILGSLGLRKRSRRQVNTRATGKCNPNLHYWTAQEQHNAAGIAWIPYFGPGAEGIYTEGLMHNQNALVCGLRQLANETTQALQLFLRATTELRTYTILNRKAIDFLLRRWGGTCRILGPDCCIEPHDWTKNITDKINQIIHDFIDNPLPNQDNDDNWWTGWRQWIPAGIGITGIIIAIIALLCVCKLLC
The test is described as follows: cell-based or functional assay.

Another test deals with T3, EBOV GP (Ebola virus (EBOV), UniProt Q05320 33-637).
T3 sequence: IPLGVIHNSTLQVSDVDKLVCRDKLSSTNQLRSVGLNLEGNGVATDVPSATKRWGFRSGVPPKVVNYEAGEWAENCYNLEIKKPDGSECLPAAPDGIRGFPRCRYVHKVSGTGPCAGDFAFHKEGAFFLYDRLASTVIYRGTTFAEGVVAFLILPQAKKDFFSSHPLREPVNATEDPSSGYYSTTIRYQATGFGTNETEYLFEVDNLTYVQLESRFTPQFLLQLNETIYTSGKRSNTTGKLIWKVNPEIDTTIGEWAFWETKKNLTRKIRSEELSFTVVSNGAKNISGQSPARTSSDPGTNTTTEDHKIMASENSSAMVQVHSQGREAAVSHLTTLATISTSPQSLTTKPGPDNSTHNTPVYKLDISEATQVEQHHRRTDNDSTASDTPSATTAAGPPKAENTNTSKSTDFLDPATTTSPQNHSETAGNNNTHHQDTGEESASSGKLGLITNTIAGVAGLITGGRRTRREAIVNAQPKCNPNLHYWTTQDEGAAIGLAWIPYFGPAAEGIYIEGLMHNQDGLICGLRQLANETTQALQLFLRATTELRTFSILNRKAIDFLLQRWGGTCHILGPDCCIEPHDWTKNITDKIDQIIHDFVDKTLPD

A further test concerns the target T4, sGP (UniProt P60170 33-324).
T4 sequence: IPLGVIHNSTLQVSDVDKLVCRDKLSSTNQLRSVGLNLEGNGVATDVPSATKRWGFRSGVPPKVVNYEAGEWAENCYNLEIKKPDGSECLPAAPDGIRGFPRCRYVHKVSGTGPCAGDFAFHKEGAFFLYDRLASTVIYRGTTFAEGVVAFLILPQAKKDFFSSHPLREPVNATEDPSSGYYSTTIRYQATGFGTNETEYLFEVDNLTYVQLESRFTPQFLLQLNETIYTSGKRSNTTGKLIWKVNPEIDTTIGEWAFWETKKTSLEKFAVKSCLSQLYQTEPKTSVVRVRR
Briefly: ELISA, GP antigen coated. For orientation: In an ELISA, binding on a coated surface is turned into a signal by an enzyme label.

A further test deals with T5, MARV GP (Marburg virus (MARV), UniProt P35253 19-637).
T5 sequence: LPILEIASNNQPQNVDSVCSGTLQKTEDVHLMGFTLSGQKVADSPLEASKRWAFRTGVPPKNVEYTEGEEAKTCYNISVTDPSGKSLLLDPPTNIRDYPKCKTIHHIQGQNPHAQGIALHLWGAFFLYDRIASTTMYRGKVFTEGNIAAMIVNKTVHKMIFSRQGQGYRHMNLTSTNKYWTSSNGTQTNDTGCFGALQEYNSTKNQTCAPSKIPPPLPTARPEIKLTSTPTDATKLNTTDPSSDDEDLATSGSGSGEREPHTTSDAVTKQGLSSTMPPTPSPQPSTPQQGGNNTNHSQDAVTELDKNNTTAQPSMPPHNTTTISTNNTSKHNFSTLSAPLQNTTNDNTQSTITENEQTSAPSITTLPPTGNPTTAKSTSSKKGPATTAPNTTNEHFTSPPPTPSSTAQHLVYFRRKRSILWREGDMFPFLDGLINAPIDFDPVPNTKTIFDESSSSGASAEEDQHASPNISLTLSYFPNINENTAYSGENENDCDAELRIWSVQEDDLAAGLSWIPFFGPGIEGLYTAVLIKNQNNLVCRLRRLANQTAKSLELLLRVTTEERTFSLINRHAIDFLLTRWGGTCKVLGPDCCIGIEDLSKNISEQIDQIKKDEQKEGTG
The test is described as follows: ELISA, GP antigen coated.

A value given as a limit tells only on which side of the number the result lay.

B1: mAb PE-87 (antibody, V domains shown)
VH: QVQLVQSGVTLVQPGGSLRVSCAASGFTFSSYAMSWVRQAPGKGLEWVSAISGLGGSTYYADSVKGRFTISRDNSKNTLYLQMNSLRAEDTAVYYCAKDHRVWAAGYHFDYWGQGALVTVSS
VL: DIVLTQSPSTLSASVGDRVTITCRASQSISSWLAWYQQKPGEAPKLLISDASSLESGVPSRFSGSGSGTEFTLTISSLQPDDFATYYCQQYYSSPTFGGGTKVEIK
With B1, the results for the “Authentic virus neutralization IC50” value in test [1], in test [2] and in test [3] were 0.6 nM, 0.2 nM and 0.2 nM, respectively. The Kd – broadly, the free concentration of one partner at which half of the binding sites on the other are occupied at equilibrium, for simple one-to-one binding – in the test with EBOV GP was less than 0.01 nM. In addition, the binding result in the test with sGP and with MARV GP was “no binding (tested: 0.2 µg/ml)” each time.

B2: mAb PE-24 (antibody, V domains shown)
VH: EVQLVESGGGLVQPGGSLRLSCAASGFTFSSYAMSWVRQAPGKGLEWVSEISGLGGSTYYADSAKGRFTISRDNSKSTLYLQMNSLRAEDTAVYYCAKDHRVWAPGYYFDHWGQGTLVTVSS
VL: DIVLTQSPSTLSASVGDRVTITCRASQSISSWLAWYQQKPGKAPKLLIYDASSLESGVPSRFSGSGSGTEFTLTISSLQPDDFATYFCQQYNRSPTFGGGTKVEIK
Consider B2, for which the “Authentic virus neutralization IC50” value in test [1] amounted to 0.6 nM; in test [2] it was 0.7 nM; in test [3], 0.2 nM. In the test with EBOV GP, this molecule came in with a Kd of 1 nM. For the same molecule, the binding result with sGP and with MARV GP was “no binding (tested: 0.2 µg/ml)” each time.

B3: mAb PE-16 (antibody, V domains shown)
VH: QVQLVQSGAEVTKPGASVKVSCKASGYTFTTYYMHWVRQAPGQGLEWVGIINPSGGITRYAQKFQGRVTLTRDTSTTTVYMELSSLRSEDTAVYYCARDRYPVLFATDYGMDVWGQGTTVTVSS
VL: DIVMTQSPATLSLSPGERATLSCRASQSVSGYLAWYQQKPGQAPRLLIYDASNRATGIPARFSGSGSGTDFTLTISSLEPEDFAVYYCQQRSIWPPGVTFGGGTKVEIK
Take B3: the entries for the “Authentic virus neutralization IC50” value in test [1], in test [2] and in test [3] were 0.3 nM, 0.1 nM and 300 nM, respectively. In the test with EBOV GP, this molecule yielded a Kd of 0.16 nM. The binding result with sGP and with MARV GP was “no binding (tested: 0.2 µg/ml)” in each case.

B4: mAb PE-05 (antibody, V domains shown)
VH: QVQLQESGGGLVKPGRSLRLSCTASGFTFGDYAMSWFRQAPGKGLEWVGFLRSKAYGGTAEYAASVKGRFTMSRDDSKSIAYLQMNSLKTEDTAVYFCTRDGFRGSSWGYSYYGMDVWGQGTTVTVSS
VL: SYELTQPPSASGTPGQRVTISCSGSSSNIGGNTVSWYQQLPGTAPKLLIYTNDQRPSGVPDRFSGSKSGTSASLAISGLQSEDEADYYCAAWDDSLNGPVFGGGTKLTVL
Consider B4, for which the “Authentic virus neutralization IC50” value in test [2] was 5.2 nM. The molecule further showed a Kd with EBOV GP of 44 nM. Besides, in the test with MARV GP, the binding result was “no binding (tested: 0.2 µg/ml)”.

B5: mAb PE-47 (antibody, V domains shown)
VH: EVQLVESGGGLVKPGGSLRLSCAASGFTFSNAWMSWVRQAPGEGLEWVGRIKSKTDGGTIDYAAPVKGRFTISRDDSKNTVYLQMTSLKTEDTAVYYCTTYTEDMQYFDWLLRGGETFDYWGQGTLVTVSS
VL: DIQMTQSPSSLSASVGDRVTITCRASQYISTYLNWYQQKPGKAPKLLIYAAYNLQSGVPSRFSGSGSGTDFTLTISSLQPEDFATYYCQQSYSTPGRYTFGQGTKVEIK
In the case of B5, in the test with EBOV GP, the affinity, expressed as Kd, was 3.5 nM. The binding result in the test with sGP and in the test with MARV GP was “no binding (tested: 0.2 µg/ml)” in each case.
